7 variants from article PMC4154873, “Delineation of Interfaces on Human Alpha-Defensins Critical for Human Adenovirus and Human Papillomavirus Inhibition” (PLoS Pathogens, 2014) can be followed below.

First the molecules themselves.
B1: unnamed (parent)
chain 1: ATCYCRTGRCATRESLSGVCEISGRLYRLCCR
chain 2: MKRARPSEDTFNPVYPYDTETGPPTVPFLTPPFVSPNGFQESPPGVLSLRLSEPLVTSNGMLALKMGNGLSLDEAGNLTSQNVTTVSPPLKKTKSNINLEISAPLTVTSEALTVAAAAPLMVAGNTLTMQSQAPLTVHDSKLSIATQGPLTVSEGKLALQTSGPLTTTDSSTLTITASPPLTTATGSLGIDLKEPIYTQNGKLGLKYGAPLHVTDDLNTLTVATGPGVTINNTSLQTKVTGALGFDSQGNMQLNVAGGLRIDSQNRRLILDVSYPFDAQNQLNLRLGQGPLFINSAHNLDINYNKGLYLFTASNNSKKLEVNLSTAKGLMFDATAIAINAGDGLEFGSPNAPNTNPLKTKIGHGLEFDSNKAMVPKLGTGLSFDSTGAITVGNKNNDKLTLWTTPAPSPNCRLNAEKDAKLTLVLTKCGSQILATVSVLAVKGSLAPISGTVQSAHLIIRFDENGVLLNNSFLDPEYWNFRNGDLTEGTAYTNAVGFMPNLSAYPKSHGKTAKSNIVSQVYLNGDKTKPVTLTITLNGTQETGDTTPSAYSMSFSWDWSGHNYINEIFATSSYTFSYIAQE
chain 3: MRRAAMYEEGPPPSYESVVSAAPVAAALGSPFDAPLDPPFVPPRYLRPTGGRNSIRYSELAPLFDTTRVYLVDNKSTDVASLNYQNDHSNFLTTVIQNNDYSPGEASTQTINLDDRSHWGGDLKTILHTNMPNVNEFMFTNKFKARVMVSRLPTKDNQVELKYEWVEFTLPEGNYSETMTIDLMNNAIVEHYLKVGRQNGVLESDIGVKFDTRNFRLGFDPVTGLVMPGVYTNEAFHPDIILLPGCGVDFTHSRLSNLLGIRKRQPFQEGFRITYDDLEGGNIPALLDVDAYQASLKDDTEQGGGGAGGSNSSGSGAEENSNAAAAAMQPVEDMNDHAIRGDTFATRAEEKRAEAEAAAEAAAPAAQPEVEKPQKKPVIKPLTEDSKKRSYNLISNDSTFTQYRSWYLAYNYGDPQTGIRSWTLLCTPDVTCGSEQVYWSLPDMMQDPVTFRSTRQISNFPVVGAELLPVHSKSFYNDQAVYSQLIRQFTSLTHVFNRFPENQILARPPAPTITTVSENVPALTDHGTLPLRNSIGGVQRVTITDARRRTCPYVYKALGIVSPRVLSSRTF

In the experiment the parent is B1. As to the kind of experiment: SPR. The conditions noted are these: with partner chain of the complex shown, read off a plot; for Kd / screen value: steady-state binding curves at 80 sec of association time, 3-fold dilution series from 3 µM to 111 nM.
The mark [1] stands for this setting: defensin at 333 nM, immobilized rPenton (2115 RU), peak of sensorgram at end of association (about 180 sec).

In the case of chain 1 L26A, the response under setting [1] came to 200 RU. Besides, for the setting “immobilized rPenton (2115 RU)”, the Kd was found to be 1300 nM and the screen value was determined as 700 RU. Moreover, the response (steady-state response at 80 sec of association time, point at 3 µM defensin) was determined as 520 RU.
With chain 1 T12A, the response under setting [1] was found to be 630 RU. Further, under “immobilized rPenton (2115 RU)”, the dissociation constant (Kd) was 1500 nM and the screen value turned out to be 2200 RU.
For the variant chain 1 V19A, the response under setting [1] stood at 260 RU. Besides, for the setting “immobilized rPenton (2115 RU)”, the screen value came out at 1200 RU.
As to chain 1 R28A, under setting [1], the response came to 340 RU. Also, where the note is “immobilized rPenton (2115 RU)”, the Kd is 1300 nM and the screen value is 1100 RU.
The corresponding values for chain 1 T7A are 690 RU, 1300 nM and 2100 RU.
As to chain 1 E21A, the response under setting [1] was found to be 480 RU. Further, for the setting “immobilized rPenton (2115 RU)”, the Kd came out at 1600 nM and the screen value was determined as 1600 RU.
The corresponding values for chain 1 I22A are 490 RU, 1500 nM and 1600 RU.

As a reminder, the Kd is the concentration at which binding is half-saturated.
